Measurements reported in the nanobody polyreactivity screen of Harvey et al. (2022).

Test: yeast display, Sf9 membrane polyspecificity reagent, FACS + sequencing; frameworks hold sequencing errors
Outline: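 Using colony PCR, genes from sorted yeast display clones were amplified, then sequenced on MiSeq at 2 × 250 and filtered by CDR length. The clones had been stained with 10% biotinylated, detergent-solubilized Sf9 membrane reagent for 1 hour at 4 °C and sorted by FACS into low and high (top ~1%) gates on anti-HA and streptavidin fluorescence. Polyreactivity labels come from the gate of origin.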

Sequence | polyreactivity (PSR sort gate)
QVQLVESGGGLVQAGGSLRLSCAASGFTFWSYAMGWYRQAPGKERELVAAISSSGDSTYYADSVKGRFTISRDNAKNTVYLQMNSLKPEDTAVYYCAAGTHTDYGRYYYWGQGTQVTVSS | low polyreactivity
QVQLVESGGGLVQAGGSLRLSCAASGFTFWTYAMGWYRQAPGKERELVAAISTSGGSTYYADSVKGRFTISRDNAKNTVYLQINSLKPEDTAVYYCAAYAIGEHFRARYGYWGQGTQVTVSS | high polyreactivity
QVQLVESGGGLVQAGGSLRLSCAASGFTFWTYAMGWYRQAPGKERELVAAITGIGGSTYYADSVKGRFTISRDNAKNTVYLQMNSLKPEDTAVYYCAARYQATYPSMGYWGQGTQVTVSS | low polyreactivity
QVQLVESGGGLVQAGGSLRLSCAASGFTFWVYAMGWYRQAPGKERELVADISSGGSTNYADSVKGRFTISRDNAKNTVYLQMNSLKPEDTAVYYCATYRARWTWYTRYDYWGQGTQVTVSS | high polyreactivity
QVQLVESGGGLVQAGGSLRLSCAASGFTFWYYAMGCYRQAPGKERELVPSISSIGGSTYYADSVKGRFTISRDNAKYTVYLQMNSLKPEDTAVYYCAARYKFLRGGVRRDYLGQGTQVTVSS | high polyreactivity
QVQLVESGGGLVQAGGSLRLSCAASGFTFWYYAMGWYRPAPGNERELVASISRTGGTTYYADSVKGRFTISRDNAKNTVDLQMTSLKPEDTAVYYCNARPKVYDREYDYWGQGTQVTVSS | high polyreactivity
QVQLVESGGGLVQAGGSLRLSCAASGFTFWYYAMGWYRQAPGKERELVAAITYNGDRTYYADSVKGRFTISRDNAKNTVYLQMNSLKPEDTAVYYCAAAFVSVRKRYGYWGQGTQVTVSS | high polyreactivity
QVQLVESGGGLVQAGGSLRLSCAASGFTFWYYAMGWYRQAPGKERELVASISSIGGSTYYADSVKGRFTISRDNAKNTVYLQMNSLKPEDTAVYYCAARYKFLRGGVRRDYWGQGTQVTVSS | high polyreactivity
QVQLVESGGGLVQAGGSLRLSCAASGFTFWYYTMGWYRQAPGKERELVAAITGRGGTTHYADSVKGRFTISRDNAKNTVYLQMNSLKPEDTAVYYCAARAYRPSLSVVRGGYWGQGTQVTVLS | high polyreactivity
QVQLVESGGGLVQAGGSLRLSCAASGFTFYAYAMGWYRQAPGKERELVAVISWSGGSTYYADSVKGRFTISRDNAKNTVYLQMNSLKPEDTAVYYCAADSLESYPDYEYDYWGQGTQVTVSS | low polyreactivity
QVQLVESGGGLVQAGGSLRLSCAASGFTFYAYVMGWYRQAPGKERELVAAISGSGTSTYYADSVKGRFTISRDNAKNTVYLQMNSLKPEDTAVYYCAADYYPWDLDDDYWGQGTQVTVSS | high polyreactivity
QVQLVESGGGLVQAGGSLRLSCAASGFTFYDNAMGWYRQAPGKERELVAAINWRSGSTYYADSVKGRFTISRDNAKNTVYLQMNSLKPEDTAVYYCAAGLVFHYYAPKSYYLGYDYWGQGTQVTVSS | low polyreactivity
QVQLVESGGGLVQAGGSLRLSCAASGFTFYDNAMGWYRQAPGKERELVAAISWGGGSTYYADSVKGRFTISRDNAKNTVYLQMNSLKPEDTAVYYCNVYYGRVLLGFYYWGQGTQVTVSS | low polyreactivity
QVQLVESGGGLVQAGGSLRLSCAASGFTFYEYAMGWYRQAPGKERELVAAINRRGGRTYYADSVKGRFTISRDNAKNTVYLQMNSLKPEDTAVYYCNTPVSDGGHYYSWGQGTQVTVSS | high polyreactivity
QVQLVESGGGLVQAGGSLRLSCAASGFTFYEYSMGWYRQAPGKERELVAAINWNGGRTYYADSVKGRFTISRDNAKNTVYLQMNSLKPEDTAVYYCAARVAPKTKIYRRYYWGQGTQVTVSS | high polyreactivity
QVQLVESGGGLVQAGGSLRLSCAASGFTFYFYAMGWYRQAPGKERELVAAITGGTSTYYADSVKGRFTISRDNAKNTVYFQRNSLKPEDTSVYYCAAGYLDVLWLLDLLQLYGYWGQGNQVTVSS | low polyreactivity
QVQLVESGGGLVQAGGSLRLSCAASGFTFYFYAMGWYRQAPGKERELVATITIGGRTNYADSVKGRFTISRDNAKNTVYLQMNSLKPEDTAVYYCAAAYLWISRYSGYDYWGQGTQVTVSS | high polyreactivity
QVQLVESGGGLVQAGGSLRLSCAASGFTFYFYAMGWYRQAPGKETELVAGISRGGSTTYADSVTGRFTISRDNAKNTVYLQRNSLKPHDTAVYYCAVGYDIVRYSYSPFYRYDYWGQGTQVTVSS | low polyreactivity
QVQLVESGGGLVQAGGSLRLSCAASGFTFYGNALGWYRQAPGKARELVAAISRSGGSTYYADSVKGRFTISRDNAKNTVYLQMNSLKPDDTAVYYCAVYVRKWYAVTDQYSGSDYWGQGTQVTVSS | high polyreactivity
QVQLVESGGGLVQAGGSLRLSCAASGFTFYGYAMGWYRQAPGKERELVAGISKNGGSTYYADSVKGRFTISRDNAKNTVYLQMNSLKPEDTAVYYCNKRSTLNTRRDYWGQGTQVTVSS | high polyreactivity

Sequence | polyreactivity (PSR sort gate)
QVQLVESGGGLVQAGGSLRLSCAASGFTFYGYAMGWYRQAPGKERELVAGITSGGRTYYADSVKGRFTISRDNAKNTVYLQMNSLKPEDTAVYYCAARRITWGRFDYWGQGTQVTVSS | high polyreactivity
QVQLVESGGGLVQAGGSLRLSCAASGFTFYGYVMGWSRQAPGKERDLVAAITRGGNTYYADSVKGRITISRDNAKNTVYLQMNSLKPEDTAVYYCARDRSYWDKPRQRDGYWGQGTQVTVSS | low polyreactivity
QVQLVESGGGLVQAGGSLRLSCAASGFTFYHNAMGWYRQAPGKERELVAAISSSGDSTYYADSVKGRFTIARDNAKNTVYLQMNSLKPEDTAVYYCNDYFYYLSQYYYYWFNYDYWGQGTQVTVSS | low polyreactivity
QVQLVESGGGLVQAGGSLRLSCAASGFTFYHNAMGWYRQATGKERELVATITARGGRTYYADSVKGRFTISRDNAKNTVYLQMNSLKPVDTAVYYCNVKASRGYTYEYDYWGQGTQVTVSS | high polyreactivity
QVQLVESGGGLVQAGGSLRLSCAASGFTFYIYAMGWYRQAPGKERELVASISARGGSTYYADSVKGRFTISRDNAKNTVYLQMNSLKPEDTAVYYCNALYNYAEIYGRGYWGQGTQVTVSS | high polyreactivity
QVQLVESGGGLVQAGGSLRLSCAASGFTFYKNTMGWYRQAPGKERELVAAISYRGGTYYADSVKGRFTISRDNAKNTVYLQMNSLKPQDTAVYYCNARYRGKYSSYGYWGQGTQVTVSS | high polyreactivity
QVQLVESGGGLVQAGGSLRLSCAASGFTFYKYVMGWYRPAPGKERELVAAITTSGGSTYYADSVKGRFTISRDNAKNTVYLQMNCLKPEDTAVYYCNARSLHTSEGDYWGQGTQVTVSS | low polyreactivity
QVQLVESGGGLVQAGGSLRLSCAASGFTFYLYAMGWYRQAPGKERELVAAISSRGGTTYYADSVKGRFTISRDNAKNTVYLQMNSLKPEDTAVYYCNVARVYHIYDYWGQGTQVTVSS | high polyreactivity
QVQLVESGGGLVQAGGSLRLSCAASGFTFYLYAMGWYRQAPGKERELVAAITYSAGSTYYADSVKGRFTISRDNAKNTVYLQMNSLKPEDTAVYYCAKRGHYRAWGGGGYWGQGTQVTVSS | low polyreactivity
QVQLVESGGGLVQAGGSLRLSCAASGFTFYNNAMGGYRQAPGKERELVAVITSNGGRTYYADSVKGRFTISRDNAKNTVYLQMNSLKPEDTAVYYCAKRGYGYGDGAYYYWGQGTQVTVSS | low polyreactivity
QVQLVESGGGLVQAGGSLRLSCAASGFTFYNNAMGWYRQAPGKERELVAGIARRGGSTSYADSVKGRFTISRDNAKNSVYLQMNSLKPEDTEVYYCAKQDYSPYYPYDYWGLGTQVTVSS | high polyreactivity
QVQLVESGGGLVQAGGSLRLSCAASGFTFYNYAKGWYIQAPGNERELVAAITSRGGSTYYADSVKGRFTISRDNAKNTVYLQMNSLKPEDTAVYYCAAGYVHYGWFELDYWGQGTQVTVSS | low polyreactivity
QVQLVESGGGLVQAGGSLRLSCAASGFTFYNYAMGWYRQAPGKERELVAAITSRGGSTYYADSVKGRFTISRDNAKNTVYLQMNSLKPEDTAVYYCNAVAKLYYWRYDYWGQGTQVTVSS | low polyreactivity
QVQLVESGGGLVQAGGSLRLSCAASGFTFYPNAMGWYRQAPGNERELVATITGSGGSTNYADSVKGRFTISRDTAKNTVYLHMNRLKPEDTAVYYCAADYAVYSFTEFNYWGQVTQVTVSS | high polyreactivity
QVQLVESGGGLVQAGGSLRLSCAASGFTFYPYAMGWYRQAPGKERELVASFTSAGGTNYADSVKGRFTISRDNAKNTVYLQMNSLKPEDTAVYYCAAKYRSRGPDYYFKSDYWGQGTQVTVSS | low polyreactivity
QVQLVESGGGLVQAGGSLRLSCAASGFTFYPYAMGWYRQAPGKERELVASITSAGGTNYADSVKGRFTISRDNAKNTVYLQMNSLKPEDTAVYYCAAKYRSRGPDYYFKSDYWGQGTQVTVSS | low polyreactivity
QVQLVESGGGLVQAGGSLRLSCAASGFTFYPYSMGWYRQAPGKERELVAAIRGSGGSTHYADSVKGRFTISRDNAKNTVYLQMNSLKPEDTAVYYCAARIRGYRQYGTYYYWGQGTQVTVSS | high polyreactivity
QVQLVESGGGLVQAGGSLRLSCAASGFTFYQYAMGWYRQAPGKERELVAAITWNGGSTFYADSVKGRFTISRDNAKNTVYLQMNSLKPEDTAVYYCAARQYFSSYYEYDYWGQGTQVTVSS | high polyreactivity
QVQLVESGGGLVQAGGSLRLSCAASGFTFYQYTMGRYRQAPGKERELVATITSDGGTNYADSVKGRFTISRDNAKNTVYLQMNSLKPEDTAVYYCARDYLSPYAVDYWGQGTQVTVSS | low polyreactivity
QVQLVESGGGLVQAGGSLRLSCAASGFTFYRNAMGWSRKAPGKERELVAAISTSGGSTHYADSVKGRFTISRDNAKNTVYLQMNSLKPEDTAVYYCAKRRSIRDEFGYWGQGTQVTVSS | high polyreactivity
